Measurements: paper PMC9374335, “C11orf94/Frey is a key regulator for male fertility by controlling Izumo1 complex assembly” (Science Advances, 2022)

Target: T1, Izumo1-3xFLAG (mouse, UniProt Q9D9J7 22-397)
T1 construct: Izumo sperm-egg fusion protein 1, mouse; open reading frame amplified from murine testis cDNA; source: HEK293T, transfected, in lysate (CHAPSO); not shown: 3xFLAG, C-terminal, kept
T1 sequence (looked up): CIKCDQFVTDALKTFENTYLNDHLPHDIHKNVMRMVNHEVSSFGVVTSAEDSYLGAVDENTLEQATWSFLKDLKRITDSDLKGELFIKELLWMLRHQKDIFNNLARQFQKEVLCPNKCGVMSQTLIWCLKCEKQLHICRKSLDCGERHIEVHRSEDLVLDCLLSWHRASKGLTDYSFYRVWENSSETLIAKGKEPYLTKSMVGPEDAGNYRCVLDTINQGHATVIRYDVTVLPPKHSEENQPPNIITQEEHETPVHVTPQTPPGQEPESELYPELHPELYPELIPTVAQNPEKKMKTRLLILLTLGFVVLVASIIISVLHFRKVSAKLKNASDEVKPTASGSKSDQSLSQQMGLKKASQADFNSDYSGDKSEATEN
Assay: co-IP; CHAPSO lysates of transfected HEK293T cells; 3xFLAG-tagged bait precipitated with anti-FLAG beads; with or without coexpressed C11orf94-3xmyc; Western blot
Conditions: partners not purified

B1: murine ACE3 equipped with a C-terminal HA-tag (natural protein, mouse, UniProt D0G895 24-737, looked up)
chain: VGETSLNDFYSEAQAKLFLQFYEQTAQVVLNEFMEATWNYVTNITKQNQKNMLQKEADRSQFMLYFSTRARMFRTDHFLNQDVKRMLRKLQNIDKSALPTEDLLEYNRLLTYMETAYNRAEVCLDEGPCLTLEPDLQEIMATSRDQKELLWAWQGWRDAVGRQLRPVFEDYVRLSNKAAQYNGYKDMGALWRSKYESDTLEEDLEQLYKELQPLYLNLHAYVRRSLYRYYGPELIDLRGPIPAHLLGNMWAQSWNNILDLVLPYPTKAPEDITAIMKIQHWRPEKMFEEANLFFTSMGMLPAPPAFWIKSMMEKPADGREVECHTSSWNFYKFNDFRVKKCTEVTLEDLLSVFHQMGHIQYFLQYQNLSVIYQEGASPAFEEAVGSVIALSVSSHKYLLARGLLSQPHQDSEEEVNFLLGIALEKIAFIPFSYLVDKFRWKIFDGTISKITYNQEWWNFRLKYQGLCPPVPRSDDDFDPGAKFHIPANVPYIRYFLGLILQFQLHEALCEASGHVGPLHQCDNYNSKVAGKILGDLLKLGSSRPWREVLQEVTGESNISTKAFLTYFKPLMDWLVTENVKQGDTLGWPDFSCSFEEKITSKVSFLGTDTEPEQAYLGQWVLLSMSFFMLVLILALGFRLHYLEKQLLDEDTMILKTLPYSYFLGIAMEPHQAARKQWLLLGLCCILMLCCIGLLIRIVTQNTENTPWMKNEGQS
notes: Angiotensin-converting enzyme 3 (ACE3), mouse; open reading frame amplified from murine testis cDNA; also called ACE3-HA; angiotensin-converting enzyme 3; source: HEK293T, transiently transfected, in lysate (CHAPSO); not shown: HA, C-terminal, kept
- fold change of the co-precipitation in the presence of C11orf94-3xmyc against its absence: ~1.7 fold
